In patent US20180244725:

Biological target: T1, R5 peptide
T1 chain: SSKKSGSYSGSKGSKRRIL

B1: N-myrisotyltransferase 1 (NMT1) (protein)
chain: MADESETAVKPPAPPLPQMMEGNGNGHEHCSDCENEEDNSYNRGGLSPANDTGAKKKKKKQKKKKEKGSETDSAQDQPVKMNSLPAERIQEIQKAIELFSVGQGPAKTMEEASKRSYQFWDTQPVPKLGEVVNTHGPVEPDKDNIRQEPYTLPQGFTWDALDLGDRGVLKELYTLLNENYVEDDDNMFRFDYSPEFLLWALRPPGWLPQWHCGVRVVSSRKLVGFISAIPANIHIYDTEKKMVEINFLCVHKKLRSKRVAPVLIREITRRVHLEGIFQAVYTAGVVLPKPVGTCRYWHRSLNPRKLIEVKFSHLSRNMTMQRTMKLYRLPETPKTAGLRPMETKDIPVVHQLLTRYLKQFHLTPVMSQEEVEHWFYPQENIIDTFVVENANGEVTDFLSFYTLPSTIMNHPTHKSLKAAYSFYNVHTQTPLLDLMSDALVLAKMKGFDVFNALDLMENKTFLEKLKFGIGDGNLQYYLYNWKCPSMGAEKVGLVLQ
myristoylation of R5 (LC-MS time course): A time course showing the incorporation of one myristoyl group was determined by LC-MS
